# PMC3411106, “Structural analysis of the human SYCE2–TEX12 complex provides molecular insights into synaptonemal complex assembly” (Open Biology, 2012)
# T1: MBP–SYCE2 (1–218) (human, UniProt Q6PIF2 1-218)
# T1 construct: Tetramer by SEC–MALS; also called full-length SYCE2; source: E. coli Rosetta 2 (DE3); co-expressed (pRSFDuet-1), in clarified lysate for the pull-down; individually expressed, purified on amylose resin for SEC–MALS; not shown: MBP, N-terminal, kept
# T1 sequence (looked up): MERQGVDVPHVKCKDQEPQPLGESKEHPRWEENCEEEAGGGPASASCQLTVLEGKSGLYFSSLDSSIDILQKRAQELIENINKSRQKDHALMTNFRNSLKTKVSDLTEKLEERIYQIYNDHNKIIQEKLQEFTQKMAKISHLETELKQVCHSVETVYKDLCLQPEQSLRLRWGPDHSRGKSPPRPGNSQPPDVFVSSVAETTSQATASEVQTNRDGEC
# T2: MBP–SYCE2_(57–88) (human, UniProt Q6PIF2 57-88)
# T2 construct: human SYCE2, residues 57–88 (α1 region); Monomer by SEC–MALS; also called α1 region of SYCE2; source: E. coli Rosetta 2 (DE3); co-expressed (pRSFDuet-1), in clarified lysate for the pull-down; individually expressed, purified on amylose resin for SEC–MALS; not shown: MBP, N-terminal, kept
# T2 chain (looked up): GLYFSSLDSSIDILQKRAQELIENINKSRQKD
# B1: SYCE2_(57–165), tag cleaved (domain or fragment, human, UniProt Q6PIF2 57-165, looked up)
# chain: GLYFSSLDSSIDILQKRAQELIENINKSRQKDHALMTNFRNSLKTKVSDLTEKLEERIYQIYNDHNKIIQEKLQEFTQKMAKISHLETELKQVCHSVETVYKDLCLQPE
# notes: also called central conserved region of SYCE2; source: E. coli Rosetta 2 (DE3), co-expressed with TEX12 constructs, co-purified (Ni–NTA, amylose, TEV cleavage, Resource Q); not shown: MBP, N-terminal, cleaved
# Assays:
# MBP–SYCE2 (1–218) [1] = molecular target: T1, MBP–SYCE2 (1–218); experiment: SEC-MALS; 100 µl at 1–5 mg ml^−1 on Superdex 200 10/300 GL; 20 mM Tris pH 8.0, 150 mM KCl, 2 mM DTT; purified complexes or purified fusion proteins
# [2] = molecular target: His–SYCE2 (1–218) (human) (UniProt Q6PIF2); experiment: as above
# [3] = molecular target: the molecule itself; experiment: as above
# [4] = molecular target: the molecule itself; experiment: AUC; sedimentation velocity of co-purified, tag-cleaved complexes; SYCE2_(57–165)–TEX12 at 57 µM, SYCE2_(57–165)–TEX12_(49–123) at 289 µM; 20 mM Tris pH 8.0, 145 mM KCl, 2 mM DTT; 30 000 r.p.m., 20°C; c(S) fit
# [5] = molecular target: B1; experiment: SDS–PAGE band densitometry of the purified complex; Coomassie-stained SDS–PAGE of the co-purified, tag-cleaved complex; densitometry with IMAGEJ; settings: both partners purified
# MBP–SYCE2_(57–88) = molecular target: T2, MBP–SYCE2_(57–88); experiment: pull-down; amylose pull-down after co-expression in bacteria of MBP-fusion SYCE2 constructs (bait) with His-tagged TEX12 or SYCE2 constructs; lysis in 20 mM Tris pH 8.0, 500 mM KCl, 2 mM DTT; 1 h at 4°C; maltose elution; Coomassie-stained SDS–PAGE; settings: partners not purified
# MBP–SYCE2 (1–218) [6] = molecular target: T1, MBP–SYCE2 (1–218); experiment: as above; settings: partners not purified
molecule,measurement,setting,value
MBP–SYCE2 (1–218) (from UniProt Q6PIF2 1-218) (natural protein),stoichiometry N,MBP–SYCE2 (1–218) [1],4
His–SYCE2 (1–218) (from UniProt Q6PIF2 1-218) (natural protein),stoichiometry N,[2],4
"MBP-TEX12_(24–123) (domain or fragment, human, UniProt Q9BXU0 24-123, looked up, Dimer by SEC–MALS; source: E. coli Rosetta 2 (DE3), individually expressed, purified on amylose resin; not shown: MBP, N-terminal, kept) VPDSPQLSSLGKSDSSFSEISGLFYKDEALEKDLNDVSKEINLMLSTYAKLLSERAAVDASYIDEIDELFKEANAIENFLIQKREFLRQRFTVIANTLHR",stoichiometry N,[3],2
B1,binding result,[4],binds
"TEX12 (1–123), tag cleaved (natural protein, human, UniProt Q9BXU0 1-123, looked up, not shown: His-tag, N-terminal, cleaved) MMANHLVKPDNRNCKRPRELESPVPDSPQLSSLGKSDSSFSEISGLFYKDEALEKDLNDVSKEINLMLSTYAKLLSERAAVDASYIDEIDELFKEANAIENFLIQKREFLRQRFTVIANTLHR",stoichiometry N,[5],1
"MBP–TEX12_(1–123) (natural protein, human, UniProt Q9BXU0 1-123, looked up, Homodimer by SEC–MALS; source: E. coli Rosetta 2 (DE3), individually expressed, purified on amylose resin; not shown: MBP, N-terminal, kept) MMANHLVKPDNRNCKRPRELESPVPDSPQLSSLGKSDSSFSEISGLFYKDEALEKDLNDVSKEINLMLSTYAKLLSERAAVDASYIDEIDELFKEANAIENFLIQKREFLRQRFTVIANTLHR",stoichiometry N,[3],2
"His–TEX12 (1–123) (natural protein, human, UniProt Q9BXU0 1-123, looked up, source: E. coli Rosetta 2 (DE3), co-expressed (pRSFDuet-1), in clarified lysate; not shown: His-tag, N-terminal, kept) MMANHLVKPDNRNCKRPRELESPVPDSPQLSSLGKSDSSFSEISGLFYKDEALEKDLNDVSKEINLMLSTYAKLLSERAAVDASYIDEIDELFKEANAIENFLIQKREFLRQRFTVIANTLHR",integrated intensity of the TEX12 band relative to 57–165,MBP–SYCE2_(57–88),96%
same,integrated intensity of the TEX12 band relative to 57–165,MBP–SYCE2 (1–218) [6],62%
"TEX12_(49–123), tag cleaved (domain or fragment, human, UniProt Q9BXU0 49-123, looked up, not shown: His-tag, N-terminal, cleaved) KDEALEKDLNDVSKEINLMLSTYAKLLSERAAVDASYIDEIDELFKEANAIENFLIQKREFLRQRFTVIANTLHR",stoichiometry N,[5],1
"MBP-TEX12_(49–123) (domain or fragment, human, UniProt Q9BXU0 49-123, looked up, Dimer by SEC–MALS; source: E. coli Rosetta 2 (DE3), individually expressed, purified on amylose resin; not shown: MBP, N-terminal, kept) KDEALEKDLNDVSKEINLMLSTYAKLLSERAAVDASYIDEIDELFKEANAIENFLIQKREFLRQRFTVIANTLHR",stoichiometry N,[3],2
